From patent publication US20060253917A1 (published 2006)
Ends that are not written are not given here.

T1: OsERP (PN20696) aa 50-145 (Oryza sativa, UniProt Q0JBH9 50-144)
T1 construct: bait, Gal4 DBD fusion; also called Elicitor responsive protein
T1 sequence: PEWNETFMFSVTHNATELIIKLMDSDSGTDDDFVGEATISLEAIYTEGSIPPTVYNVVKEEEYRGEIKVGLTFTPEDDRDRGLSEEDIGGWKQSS

T2: OsGF14-c aa 1-150 (Oryza sativa, UniProt Q6ZKC0 1-150)
T2 construct: bait, Gal4 DBD fusion; also called PN12464; O. sativa 14-3-3 Protein Homolog GF14-c
T2 sequence: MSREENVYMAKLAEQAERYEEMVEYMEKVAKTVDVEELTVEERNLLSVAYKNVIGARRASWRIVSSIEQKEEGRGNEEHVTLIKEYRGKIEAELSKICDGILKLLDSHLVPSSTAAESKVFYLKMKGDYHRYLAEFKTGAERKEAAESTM

B1: PN29984 aa 5-41 (other)
chain: SSGTTSRPTASRTQQTKGRLTVTISLKAYSPGRTRSG
notes: prey, AD fusion; also called Novel Protein PN29984
B2: PN30857 aa 1-148 (other)
chain: QDTRPLQAQRRRHGGGPQDRQREPSQGDFLRRQREEHPGGEEDRAPHGAGGHAAAGEGRGPRAGEHPQHQGGAAGAVGGGREGGGRAHLLRPRRHRDIGDRVGHTYCLSRLRRIAQNEQPSIHPCPSLAGQVIIRWEFRIGRDNNTFQ
notes: prey, AD fusion; also called Novel protein PN30857
B3: PN30870 aa 1-446 (other)
chain: GEEDEHPHEGRAGVERRRQHVVVLLPPPLAVLEHEVVEDGARDEPARDVGRRRRRHPGEPVGDDGDVDERDPLLLRERPAEQPHRHGQHGAGEEQPHQVAVQAVAAEQPGGADEPPDHRRVERDPVLGARPRAVRVQRLHVADVVDAAQHPPRHRQVHHAGDHRAHQLRRVHAPRRDLHVVPQLEVREERQRVHRADPPVDLEQQVRDRLPRQRVPDHELRDDVVPRLLVGGGLDDADGEGDDEGEGEGEEHPPPRQLHLLPVHERHDQRHGDAADEQHEEPPLRHLLVPPHQLRVHVHLRRRGAHRRPALPPDVPAVEQRHVHDRRREPQEPGPDGDGEQRAQVQLPVALVRRHVEVELPREHLGGVVLLPGRREQLVGEDWELPRVERVELPVAERHDEVDEHDEARGGVGDGRPRRHQRAPVVRRDAGPVQCEGADAEAVVAG
notes: prey, AD fusion; also called Isp-4 like
B4: PN29984 aa 1-38 (other)
chain: APSSSSGTTSRPTASRTQQTKGRLTVTISLKAYSPGRT
notes: as for B1
B5: PN30844 aa 1-64 (other)
chain: VAVRKKETRDGAMQTMPSRVQQGAADFEETLFVRCHLYCSGGAGTGKPLRFEPRPFLLSAVAVE
notes: prey, AD fusion; also called Novel protein PN30844
B6: PN30845 aa 1-64 (other)
chain: GDQGRTYLFRVSNVGVKTSVNVRIQGHSLRLVEVEGTHPVQNVYDSLDVHVGQSVAFLVTLDKA
notes: prey, AD fusion; also called Pectinesterase-like
B7: PN29983 aa 1-131 (other)
chain: GVETVVTDTAGNKVVVTGAADAAELKERIEARTKKAVQIVSAGAGPPPKKDKEEKKDKDKKGGGDDKKAEKEKGGGGGDKKAEKEKGGGDKPKEEKKAKEPKEETVTLKIRLHCEGCIDRIKRRICKIKGG
notes: prey, AD fusion; also called Novel protein PN29983
B8: PN30868 aa 167-336 (other)
chain: YNELAQLRAGKSSKSKLLIAKFKSPKSLNGWEVDQGSYFPNTFASRFDEGIDASFDFSEAGQAVFSGFVFTRGGYVEISKRLSLPLGSTLDRYDGLLFSVGGNGRSYVVILETGPLADTSQSKKYFARMTTKVGFCRVRVPFSAFRPVNPQDPPLDPFLVHTLTIRFEPK
notes: prey, AD fusion
B9: PN30843 aa 164-221 (other)
chain: RALQNFTAEELLDGGEKQYQCQRCRKKVVAKKKFTIDKAPYVLTIHLKRFSPFNPREK
modifications: cysteine pairing not given here; also: AD fusion
notes: prey, AD fusion; also called Ubiquitin specific protease-like
B10: OsAAB46718 aa 82-126 (other)
chain: SPEEWSPTGDTYVGGTTGLLIWAVTLAGLLGGGALLVYNTSALAG
modifications: not fully specified
notes: prey, AD fusion; also called PN22840; O. sativa Photosystem II 10 kDa Polypeptide
B11: OsPN22874 aa 1-88 (other)
chain: GTNPGFRVGEIRLSNRDIYFGTLLGNTPEGSGRYVWSDGCTYDGEWRRGMRHGQGKTMWPSGATYEGEYSGGYIYGEGTYTGSDNIVY
notes: prey, AD fusion; also called Novel Protein 22874, Fragment, similar to Arabidopsis Putative Phosphatidylinositol-4-phosphate 5-kinase
B12: OsRCAA1 aa 68-210 (other)
chain: DISDDQQDITRGKGFVDSLFQAPTGDGTHEAVLSSYEYLSQGLRTYDFDNTMGGFYIAPAFMDKLVVHISKNFMTLPNIKVPLILGIWGGKGQGKSFQCELVFAKMGINPIMMSAGELESGNAGEPAKLIRQRYREAADIIKK
notes: prey, AD fusion; also called PN19842; O. sativa Ribulose Bisphosphate Carboxylase/Oxygenase Activase, Large Isoform A1
B13: OsBAB61062 aa 463-511 (other)
chain: AIDTYDDHRMAMAFSLAACADVPVTIRDPGCTRKTFPNYFDVLSTFVRN
modifications: not fully specified; cysteine pairing not given here
notes: prey, AD fusion; also called PN22844; O. sativa 3-Phosphoshikimate 1-carboxyvinyltransferase (EPSP Synthase)
B14: OsPN29982 aa 201-300 (other)
chain: SPVVDNADVTETKPQTELPVHVMCAEWSSQKRLKKVQLETLERVYSRTKRPTNTMISSIVQVTSLPRKTIVKWFEDRREQDGVPDHRVAFKRSLSETIAS
notes: prey, AD fusion; also called Novel Protein PN29982
B15: OsPN22858 aa 27-154 (other)
chain: DKPTDGFSSIDEAIGALHEGKFVIAVDDESGDNEGDLVMAATLADPESIAFMIRNGSGIISVGMKEEDLTRLMIPMMSPIAEIEDISAAASTVTVDARVGISTGVSAADRAKTIFTLASPDSKPTDLR
notes: prey, AD fusion; also called Novel Protein 22858, Fragment, similar to Arabidopsis GTP Cyclohydrolase II
B16: OsPN23059 aa 193-333 (other)
chain: DGIDYAAVTVQLPGGERVPFLFTIKNLVATGKPESFGGPFLVPSYRGSSFLDPKGRGGSTGYDNAVALPAGGRGDEEELAKENVKNASSSTGNITLSVTKSKPETGEVIGVFESVQPSDTDLGAKVPKDVKIQGVWYAQLE
notes: prey, AD fusion; also called OsContig4331, O. sativa Putative 33 kDa Oxygen-Evolving Protein of Photosystem II
B17: OsPN30846 aa 1-266 (other)
chain: APRRPSTFLNAVALGNVGAGKSAVLNSLIGHPVLPTGENGATRAPIVVDLQRDPGLSSKSIVLQIDSKSQRVSASSLRHSLQDRLSKGASSGSSRGRVEGINLKLRTSTAPPLKLVDLPGIDQRAVDDPMINEYAGHNDAILLVVIPAMQAADVASSRALRLAKDIDADGTRTVGVISKVDQAEGDAKTIACVQALLLNKGPKNLPDIEWVALIGQSVAIASAQAAGSENSLETAWNAEAETLRSILTGAPKSKLGRIALVDTIAK
notes: prey, AD fusion; also called Novel Protein PN30846
B18: OsPN23059 aa 90-169 (other)
chain: PRRLTFDEIQSKTYMEVKGTGTANQCPTVEGGVDSFAFKAGKYNMKKFCLEPTSFTVKAEGVAKNAPPEFQKTKLMTRLT
notes: prey, AD fusion; also called OsContig4331
B19: OsBAA02730 aa 206-269 (other)
chain: QDNGLVPIVEPEILLDGEHGIDRTFEVAQKVWAETFFYMAENNVMFEGILLKPSMVTPGAECKD
notes: prey, AD fusion; also called PN22832; O. sativa Fructose-Bisphosphate Aldolase, Chloroplast Precursor
B20: OsPN22866 aa 95-305 (other)
chain: LLALSDDLVKSNVFIEGVSHKIRRQIEELERAGGVESGALTVDGVPVDTYLTRFVWDEGKYPTMSPLKEIAGSIQSQVSKIEDDMKVRGAEYNNVRSQLNAINRKQTGSLAVRDLSNLVKPEDMVTSEHLVTLLAVVPQYSQKDWLSSYESLDTFVVPRSSKKLYEDNEYALYTVTLFAKVVDNFKVRAREKGFQVRDFEYSSEAQESRKE
notes: prey, AD fusion; also called Novel Protein PN22866, Fragment, Similar to A. Thaliana Vacuolar ATP Synthase Subunit C
B21: OsPN23061 aa 94-203 (other)
chain: VITWTSPKEQVFEMPTGGAAIMREGPNLLKLARKEQCLALGTRLRSKYKINYQFYRVFPNGEVQYLHPKDGVYPEKVNAGRQGVGQNFRSIGKNVSPIEVKFTGKNVFDI
notes: prey, AD fusion; also called Hypothetical Protein OsContig3864, Similar to H. vulgare Photosystem I Reaction Center Subunit II, Chloroplast Precursor
B22: OsPN30974 aa 38-178 (other)
chain: GGYDHPGLIPGLPDEISLQILARMPRMGYLNAKMVSRSWKAAITGVELYRVRKELGVSEEWLYMLTKSDDGKLVWNAFDPVCGQWQRLPLMPGISHGGECKRGIPGLWLGDLLSAGIRVSDVIRGWLGQRDSLDRLPFCGC
notes: prey, AD fusion; also called Novel Protein PN30974

Target: T1, OsERP (PN20696) aa 50-145
Test: Y2H; input trait library
In short: (§1)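 Myriad Genetics Inc. (Salt Lake City, Utah) supplied the automated, high-throughput yeast two-hybrid assay used to detect protein-protein interactions. A bait clone encoding a defined amino-acid fragment of a rice protein was screened against a rice prey library, either the input trait or the output trait library. To identify the interacting proteins, prey clones were retrieved and their encoding sequences were compared against databases by BLAST.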

Binding result, binds:
B1, B2, B3, B4, B5, B6, B7, B8, B9

Target: T2, OsGF14-c aa 1-150
Test: Y2H; input trait library
In short: as §1

Binding result, binds:
B10, B11, B12, B13, B14, B15, B16, B17, B18, B19, B20, B21, B22
